Molecular target: PCBP2 (poly(C)-binding protein 2, hnRNP E2) (UniProt Q15366)
Test: EMSA
Conditions: EMSA: 25 mM NaH2PO4 pH 8.0, 50 mM NaCl, 25 mM KCl, 2.5 mM MgCl2, 10 mM imidazole, 0.5 mM DTT, 0.5 mM PMSF, 7% glycerol, 0.5 U/uL RNasin, 75 ng/uL BSA …

Sequence of PCBP2 (poly(C)-binding protein 2, hnRNP E2) (Q15366 whole entry): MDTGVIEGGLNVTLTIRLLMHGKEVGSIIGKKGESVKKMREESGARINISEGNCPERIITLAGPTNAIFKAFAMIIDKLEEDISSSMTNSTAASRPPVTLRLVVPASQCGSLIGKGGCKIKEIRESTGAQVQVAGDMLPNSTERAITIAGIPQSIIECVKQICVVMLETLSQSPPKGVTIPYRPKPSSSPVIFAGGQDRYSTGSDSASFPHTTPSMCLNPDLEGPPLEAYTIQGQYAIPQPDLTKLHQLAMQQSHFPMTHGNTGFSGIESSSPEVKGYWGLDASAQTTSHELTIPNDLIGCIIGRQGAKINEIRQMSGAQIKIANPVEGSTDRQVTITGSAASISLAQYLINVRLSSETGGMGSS

Question: Which Kd does the source give for “GGUCAUGGCGACUGUCCAGCUUUGUGCCAGGAGCCUCGCAGGGGUUGAUGGGAUUGGGGUUUUCCCCUCCCAUGUGCUCAAGACUGGCGCUAAAAGUUUUGAGCUUCUCAAAAGUCUAGAGCCACCGUCCAGGGAGCAGGUAGCUGCUGGGCUCCGGGGACACUUUGCGUUCGGGCUGGGAGCGUGCUUUCCACGACGGUGACACGCUUCCCUGGAUUGGCAGCCAGACUGCCUUCCGGGUCACUGCCAUGGAGGAGCCGCAGUCAGAUCCUAGCGUCGAGCCCCCUCUGAGUCAGGAAACAUUUUCAGACCUAUGGAAACUACUUCCUGAAAACAACGUUCUGUCCCCCUUGCCGUCCCAAGCAAUG [P0-Δ40p53 RNA]” here?
Answer: Its Kd is 63 nM.
